Laboratory results as given in publication PMC5063997, “Engineered Tissue Inhibitor of Metalloproteinases-3 Variants Resistant to Endocytosis Have Prolonged Chondroprotective Activity*” (The Journal of Biological Chemistry, 2016).
Where a chain is given by its changes, count along the chain named. Names and notes keep the numbering of the source.

Tests used:
[1] = biological target: low density lipoprotein receptor-related protein 1 (LRP1), full-length (UniProt Q07954)
[2] = biological target: T1, catalytic domain of MMP-1 (MMP-1ΔC) (UniProt P03956 100-269); assay: enzyme inhibition under equilibrium conditions (Ki(app), tight binding equation); apparent; metalloproteinase (0.5-1 nM) preincubated with wild-type or mutant TIMP-3 (0.25-25 nM) 1 h at 37 °C, residual activity on fluorescence-quenched substrates; 50 mM Tris-HCl pH 7.5, 150 mM NaCl, 10 mM CaCl2, 0.05% Brij 35, 0.02% NaN3; conditions: both partners purified
T1 construct: MMP-1, catalytic domain
T1 sequence (looked up): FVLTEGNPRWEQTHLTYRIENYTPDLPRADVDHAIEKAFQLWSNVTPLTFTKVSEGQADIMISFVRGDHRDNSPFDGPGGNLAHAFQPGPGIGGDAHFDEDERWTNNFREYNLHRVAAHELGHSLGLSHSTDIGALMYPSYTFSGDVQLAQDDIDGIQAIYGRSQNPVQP

[3] = biological target: T2, catalytic domain of MMP-3 (MMP-3ΔC) (UniProt P08254 100-272); assay: as above; conditions: both partners purified
T2 construct: MMP-3, catalytic domain
T2 sequence (P08254 100-272, stated change not applied): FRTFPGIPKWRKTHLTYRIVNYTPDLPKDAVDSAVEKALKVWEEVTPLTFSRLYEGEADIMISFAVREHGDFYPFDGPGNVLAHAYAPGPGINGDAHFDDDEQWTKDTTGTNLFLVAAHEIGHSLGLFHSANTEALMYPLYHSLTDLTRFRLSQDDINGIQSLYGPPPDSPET

[4] = biological target: T3, ADAMTS-4 lacking the C-terminal spacer domain (UniProt O75173 213-685); assay: as above; conditions: both partners purified
T3 construct: ADAMTS-4 without its C-terminal spacer domain
T3 sequence (looked up): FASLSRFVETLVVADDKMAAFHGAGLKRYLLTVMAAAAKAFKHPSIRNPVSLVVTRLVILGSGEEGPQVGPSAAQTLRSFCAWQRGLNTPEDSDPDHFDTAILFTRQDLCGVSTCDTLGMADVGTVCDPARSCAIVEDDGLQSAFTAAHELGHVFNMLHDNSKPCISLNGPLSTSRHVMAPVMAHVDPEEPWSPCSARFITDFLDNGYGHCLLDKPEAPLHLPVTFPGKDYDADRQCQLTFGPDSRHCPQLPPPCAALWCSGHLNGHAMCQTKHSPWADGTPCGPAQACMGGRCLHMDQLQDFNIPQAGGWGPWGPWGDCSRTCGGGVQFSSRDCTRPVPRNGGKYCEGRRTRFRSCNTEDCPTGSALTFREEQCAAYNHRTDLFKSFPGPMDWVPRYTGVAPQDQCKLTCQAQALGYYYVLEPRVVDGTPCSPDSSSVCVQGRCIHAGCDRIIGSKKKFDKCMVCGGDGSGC

[5] = biological target: T4, catalytic domain of MMP-2 (MMP-2ΔC) (UniProt P08253 110-444); assay: as above; conditions: both partners purified
T4 construct: MMP-2, catalytic domain

[6] = biological target: T5, ADAMTS-5 lacking the C-terminal thrombospondin domain (UniProt Q9UNA0 262-874); assay: as above; conditions: both partners purified
T5 construct: ADAMTS-5 without its C-terminal thrombospondin domain
T5 sequence (looked up): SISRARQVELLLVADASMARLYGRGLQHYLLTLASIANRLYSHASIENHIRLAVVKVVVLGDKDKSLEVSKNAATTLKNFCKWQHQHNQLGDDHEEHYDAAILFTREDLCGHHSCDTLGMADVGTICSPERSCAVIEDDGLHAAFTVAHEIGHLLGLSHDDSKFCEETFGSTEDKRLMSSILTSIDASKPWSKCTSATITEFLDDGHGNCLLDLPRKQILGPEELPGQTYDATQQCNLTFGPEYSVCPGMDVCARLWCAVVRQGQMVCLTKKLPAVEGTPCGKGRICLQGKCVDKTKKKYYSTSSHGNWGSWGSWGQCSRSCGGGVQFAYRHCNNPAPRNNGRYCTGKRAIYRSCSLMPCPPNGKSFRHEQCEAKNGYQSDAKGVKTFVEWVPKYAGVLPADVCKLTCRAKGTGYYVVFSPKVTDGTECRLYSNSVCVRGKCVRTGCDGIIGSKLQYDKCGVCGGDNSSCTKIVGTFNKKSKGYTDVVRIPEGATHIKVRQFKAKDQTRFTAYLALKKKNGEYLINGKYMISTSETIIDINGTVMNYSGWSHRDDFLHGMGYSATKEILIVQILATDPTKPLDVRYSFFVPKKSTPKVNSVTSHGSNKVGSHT

ADAM17 ectodomain = biological target: T6, ADAM17 ectodomain (UniProt P78536 215-671); assay: enzyme inhibition under equilibrium conditions (Ki(app), tight binding equation); apparent; ADAM17 preincubated with wild-type or mutant TIMP-3 (0.25-25 nM) 1 h at 37 °C, residual activity on a fluorescence-quenched substrate; 50 mM Tris-HCl pH 7.5, 25 mM NaCl, 10 mM CaCl2, 0.05% Brij 35, 0.02% NaN3; conditions: both partners purified
T6 construct: ADAM17, ectodomain; source: gift from Professor Gillian Murphy (University of Cambridge)
T6 sequence (P78536 215-671): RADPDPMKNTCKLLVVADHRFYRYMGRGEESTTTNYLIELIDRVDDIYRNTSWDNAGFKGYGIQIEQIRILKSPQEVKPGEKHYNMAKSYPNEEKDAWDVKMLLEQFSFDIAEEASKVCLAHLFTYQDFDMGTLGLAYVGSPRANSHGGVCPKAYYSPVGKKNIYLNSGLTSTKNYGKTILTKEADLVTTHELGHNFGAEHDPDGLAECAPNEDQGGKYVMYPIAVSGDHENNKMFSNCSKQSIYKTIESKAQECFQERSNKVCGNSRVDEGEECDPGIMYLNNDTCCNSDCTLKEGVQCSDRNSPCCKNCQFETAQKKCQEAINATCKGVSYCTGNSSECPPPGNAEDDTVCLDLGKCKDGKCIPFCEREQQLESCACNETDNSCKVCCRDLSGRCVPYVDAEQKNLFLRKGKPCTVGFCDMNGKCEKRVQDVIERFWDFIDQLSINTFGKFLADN

[7] = biological target: low density lipoprotein receptor-related protein 1 (LRP1), full-length (UniProt Q07954 20-4544); assay: cell-based or functional assay
[8] = biological target: low density lipoprotein receptor-related protein 1 (LRP1), full-length (UniProt Q07954); remark: listed apart in the source
[9] = biological target: T5, ADAMTS-5 lacking the C-terminal …; assay: enzyme inhibition under equilibrium conditions (Ki(app), tight binding equation); apparent; ADAMTS-5 (0.5 nM) preincubated with TIMP-3 (0.5-10 nM) with heparin (100 nM) 1 h at 37 °C, residual activity 18 h at 37 °C; 50 mM Tris-HCl pH 7.5, 150 mM NaCl, 10 mM CaCl2, 0.05% Brij 35, 0.02% NaN3; conditions: both partners purified

low density lipoprotein receptor-related protein 1 (LRP1), full-length (UniProt Q07954), sequence (Q07954 20-4544): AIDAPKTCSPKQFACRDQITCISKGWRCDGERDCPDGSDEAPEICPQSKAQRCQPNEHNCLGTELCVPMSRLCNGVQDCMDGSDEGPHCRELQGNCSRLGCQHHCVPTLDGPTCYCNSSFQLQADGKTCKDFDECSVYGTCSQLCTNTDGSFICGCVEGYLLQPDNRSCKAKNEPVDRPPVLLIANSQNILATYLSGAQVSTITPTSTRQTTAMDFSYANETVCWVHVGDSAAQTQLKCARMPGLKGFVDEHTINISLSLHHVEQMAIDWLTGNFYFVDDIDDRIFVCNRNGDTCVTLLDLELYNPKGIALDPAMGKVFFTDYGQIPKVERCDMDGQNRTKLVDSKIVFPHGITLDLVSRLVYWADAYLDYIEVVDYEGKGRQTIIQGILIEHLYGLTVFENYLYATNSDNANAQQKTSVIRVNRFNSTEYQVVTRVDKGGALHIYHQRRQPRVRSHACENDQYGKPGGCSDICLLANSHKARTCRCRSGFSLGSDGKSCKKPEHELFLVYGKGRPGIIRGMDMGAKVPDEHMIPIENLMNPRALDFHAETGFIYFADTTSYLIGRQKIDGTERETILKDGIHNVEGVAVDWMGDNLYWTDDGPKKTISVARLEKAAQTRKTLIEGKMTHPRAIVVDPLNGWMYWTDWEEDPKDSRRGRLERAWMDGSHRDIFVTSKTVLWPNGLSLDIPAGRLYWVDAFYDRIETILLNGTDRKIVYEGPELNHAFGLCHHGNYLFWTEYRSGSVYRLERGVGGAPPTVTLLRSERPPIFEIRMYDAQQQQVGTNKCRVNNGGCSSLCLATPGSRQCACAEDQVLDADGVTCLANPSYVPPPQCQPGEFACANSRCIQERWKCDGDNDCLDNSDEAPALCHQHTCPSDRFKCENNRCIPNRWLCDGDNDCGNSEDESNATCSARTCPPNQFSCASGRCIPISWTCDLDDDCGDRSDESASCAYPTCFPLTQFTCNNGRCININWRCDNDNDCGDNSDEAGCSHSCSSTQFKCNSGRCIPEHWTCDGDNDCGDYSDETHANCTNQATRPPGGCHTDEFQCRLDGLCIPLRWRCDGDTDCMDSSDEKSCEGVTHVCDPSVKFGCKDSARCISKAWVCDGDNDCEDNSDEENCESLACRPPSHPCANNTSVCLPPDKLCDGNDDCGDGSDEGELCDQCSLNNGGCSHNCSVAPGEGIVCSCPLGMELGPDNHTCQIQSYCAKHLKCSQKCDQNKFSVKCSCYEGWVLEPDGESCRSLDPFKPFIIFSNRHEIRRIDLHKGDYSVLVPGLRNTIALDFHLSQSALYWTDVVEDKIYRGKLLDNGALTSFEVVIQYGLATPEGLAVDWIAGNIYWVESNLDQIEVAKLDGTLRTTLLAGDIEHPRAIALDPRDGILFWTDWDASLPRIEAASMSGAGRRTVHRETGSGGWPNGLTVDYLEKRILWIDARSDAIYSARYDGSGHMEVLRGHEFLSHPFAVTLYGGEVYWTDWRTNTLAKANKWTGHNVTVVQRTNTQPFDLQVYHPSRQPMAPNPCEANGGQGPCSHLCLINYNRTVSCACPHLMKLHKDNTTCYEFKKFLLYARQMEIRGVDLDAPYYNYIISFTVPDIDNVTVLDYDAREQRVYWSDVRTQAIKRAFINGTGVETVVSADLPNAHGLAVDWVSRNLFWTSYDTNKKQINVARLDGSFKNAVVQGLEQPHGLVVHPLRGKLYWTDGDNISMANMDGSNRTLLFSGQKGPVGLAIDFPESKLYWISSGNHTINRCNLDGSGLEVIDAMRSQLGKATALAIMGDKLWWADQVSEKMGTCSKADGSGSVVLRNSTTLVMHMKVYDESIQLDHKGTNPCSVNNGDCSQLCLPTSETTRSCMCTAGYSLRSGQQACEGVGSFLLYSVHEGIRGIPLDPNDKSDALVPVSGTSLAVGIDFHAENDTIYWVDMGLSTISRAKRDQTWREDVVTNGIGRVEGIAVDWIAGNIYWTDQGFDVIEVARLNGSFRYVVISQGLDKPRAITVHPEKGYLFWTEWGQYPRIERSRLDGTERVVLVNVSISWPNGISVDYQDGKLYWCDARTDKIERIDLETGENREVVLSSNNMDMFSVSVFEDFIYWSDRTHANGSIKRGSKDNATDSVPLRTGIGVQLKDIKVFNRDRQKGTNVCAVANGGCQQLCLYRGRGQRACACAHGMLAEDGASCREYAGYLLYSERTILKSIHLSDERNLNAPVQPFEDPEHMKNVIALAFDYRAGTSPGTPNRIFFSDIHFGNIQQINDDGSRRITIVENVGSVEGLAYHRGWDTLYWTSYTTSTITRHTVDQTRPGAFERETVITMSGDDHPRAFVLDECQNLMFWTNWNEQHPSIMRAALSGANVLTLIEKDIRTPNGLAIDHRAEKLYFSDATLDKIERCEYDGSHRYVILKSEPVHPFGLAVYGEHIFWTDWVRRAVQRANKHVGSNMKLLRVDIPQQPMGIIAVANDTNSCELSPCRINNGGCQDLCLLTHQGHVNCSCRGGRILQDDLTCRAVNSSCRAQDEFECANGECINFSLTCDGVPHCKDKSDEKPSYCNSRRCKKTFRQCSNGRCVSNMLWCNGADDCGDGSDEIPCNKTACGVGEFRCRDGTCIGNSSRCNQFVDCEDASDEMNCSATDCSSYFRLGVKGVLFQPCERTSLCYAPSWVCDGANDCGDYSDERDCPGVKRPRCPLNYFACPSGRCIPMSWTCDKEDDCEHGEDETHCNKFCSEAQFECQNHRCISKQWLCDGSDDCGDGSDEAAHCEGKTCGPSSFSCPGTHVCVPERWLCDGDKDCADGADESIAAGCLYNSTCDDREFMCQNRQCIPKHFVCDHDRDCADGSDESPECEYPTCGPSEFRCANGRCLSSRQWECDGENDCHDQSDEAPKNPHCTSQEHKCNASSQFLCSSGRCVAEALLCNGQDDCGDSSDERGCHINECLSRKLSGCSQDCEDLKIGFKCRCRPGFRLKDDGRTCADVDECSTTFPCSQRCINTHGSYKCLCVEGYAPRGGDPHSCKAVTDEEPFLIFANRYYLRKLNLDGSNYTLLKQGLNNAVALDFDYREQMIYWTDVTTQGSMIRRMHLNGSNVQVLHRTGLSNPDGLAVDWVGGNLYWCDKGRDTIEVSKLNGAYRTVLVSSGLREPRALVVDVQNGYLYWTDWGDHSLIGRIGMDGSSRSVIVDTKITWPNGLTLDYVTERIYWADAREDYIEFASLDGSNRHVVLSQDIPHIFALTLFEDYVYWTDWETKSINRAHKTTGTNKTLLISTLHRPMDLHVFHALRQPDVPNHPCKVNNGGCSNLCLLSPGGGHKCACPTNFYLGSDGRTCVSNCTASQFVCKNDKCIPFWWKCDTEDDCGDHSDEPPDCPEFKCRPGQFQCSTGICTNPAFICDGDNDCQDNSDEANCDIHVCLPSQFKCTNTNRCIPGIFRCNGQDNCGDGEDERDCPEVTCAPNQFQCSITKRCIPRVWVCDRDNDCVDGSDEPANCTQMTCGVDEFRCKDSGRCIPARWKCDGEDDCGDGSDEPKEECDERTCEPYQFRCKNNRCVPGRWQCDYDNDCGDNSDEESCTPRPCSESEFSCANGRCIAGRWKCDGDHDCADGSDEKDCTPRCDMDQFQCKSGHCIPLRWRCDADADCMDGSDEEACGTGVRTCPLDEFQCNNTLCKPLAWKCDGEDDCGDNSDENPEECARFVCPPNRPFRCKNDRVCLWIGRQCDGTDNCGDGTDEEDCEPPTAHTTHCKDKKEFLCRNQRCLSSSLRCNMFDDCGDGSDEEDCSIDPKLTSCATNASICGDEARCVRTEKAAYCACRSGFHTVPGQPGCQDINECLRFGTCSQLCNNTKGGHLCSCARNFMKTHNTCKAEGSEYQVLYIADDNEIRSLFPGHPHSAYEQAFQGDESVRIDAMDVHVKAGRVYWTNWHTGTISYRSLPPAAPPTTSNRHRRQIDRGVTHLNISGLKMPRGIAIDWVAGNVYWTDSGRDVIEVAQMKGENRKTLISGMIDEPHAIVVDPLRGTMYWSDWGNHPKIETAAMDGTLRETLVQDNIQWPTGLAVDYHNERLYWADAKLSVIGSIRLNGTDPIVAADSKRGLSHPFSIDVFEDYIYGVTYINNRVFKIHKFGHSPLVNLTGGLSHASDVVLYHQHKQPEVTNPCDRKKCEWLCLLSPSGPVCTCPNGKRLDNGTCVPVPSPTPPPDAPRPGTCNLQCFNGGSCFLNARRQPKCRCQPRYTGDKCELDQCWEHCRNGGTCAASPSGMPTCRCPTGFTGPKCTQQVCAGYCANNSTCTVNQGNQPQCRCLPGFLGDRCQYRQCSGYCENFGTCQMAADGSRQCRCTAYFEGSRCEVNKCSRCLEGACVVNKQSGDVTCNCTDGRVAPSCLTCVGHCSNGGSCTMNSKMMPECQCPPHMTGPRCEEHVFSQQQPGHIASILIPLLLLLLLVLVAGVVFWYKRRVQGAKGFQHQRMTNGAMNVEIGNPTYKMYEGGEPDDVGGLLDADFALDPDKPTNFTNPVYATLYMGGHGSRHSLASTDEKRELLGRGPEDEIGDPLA

B1: TIMP-3 K22A/K110A, C-terminally FLAG-tagged (natural protein)
chain: CTCSPSHPQDAFCNSDIVIRAAVVGKKLVKEGPFGTLVYTIKQMKMYRGFTKMPHVQYIHTEASESLCGLKLEVNKYQYLLTGRVYDGKMYTGLCNFVERWDQLTLSQRAGLNYRYHLGCNCKIKSCYYLPCFVTSKNECLWTDMLSNFGYPGYQSKHYACIRQKGGYCSWYRGWAPPDKSIINATDP
- percentage remaining in the medium of HTB94 chondrosarcoma cells after 24 h (1 nM, anti-FLAG immunoblot and densitometry) [1]: > 50%

B2: wild-type TIMP-3 (tissue inhibitor of metalloproteinases-3), C-terminally FLAG-tagged (natural protein, UniProt P35625 24-211, looked up)
chain: B1 chain with A22K, A110K
notes: TIMP-3, secreted into the conditioned medium; source: for the screen also transiently transfected, conditioned medium dialyzed against TBS; not shown: FLAG, C-terminal, kept
- Ki [2]: 1.2 nM
- Ki [3]: 1.2 nM
- Ki [4]: 0.19 nM
- Ki [5]: 0.6 nM
- Ki [6]: 1.27 nM
- Ki (ADAM17 ectodomain): 3.54 nM
- half-life of loss from the medium of HTB94 chondrosarcoma cells (1 nM, 0-24 h, anti-FLAG immunoblot and densitometry) [7]: 3.6 h
- half-life of uptake from the medium of LRP1 wild-type PEA10 cells (1 nM, 0-8 h); remained at the same level in the medium of LRP1-null PEA13 cells [7]: 1.9 h

B3: TIMP-3 K30A/K52A, C-terminally FLAG-tagged (natural protein)
chain: B1 chain with A22K, K30A, K52A, A110K
- percentage remaining in the medium of HTB94 chondrosarcoma cells after 24 h (1 nM, anti-FLAG immunoblot and densitometry) [1]: > 50%

B4: TIMP-3 K45A/K89A, C-terminally FLAG-tagged (natural protein)
chain: B1 chain with A22K, K45A, K89A, A110K
- percentage remaining in the medium of HTB94 chondrosarcoma cells after 24 h (1 nM, anti-FLAG immunoblot and densitometry) [1]: > 50%

B5: TIMP-3 K22A/K157A, C-terminally FLAG-tagged (natural protein)
chain: B1 chain with A110K, K157A
- percentage remaining in the medium of HTB94 chondrosarcoma cells after 24 h (1 nM, anti-FLAG immunoblot and densitometry) [1]: > 50%

B6: TIMP-3 K42A, C-terminally FLAG-tagged (natural protein)
chain: B1 chain with A22K, K42A, A110K
- half-life of loss from the medium of HTB94 chondrosarcoma cells (1 nM, 0-24 h, anti-FLAG immunoblot and densitometry) [8]: 8.8 h

B7: TIMP-3 K157A, C-terminally FLAG-tagged (natural protein)
chain: B1 chain with A22K, A110K, K157A
- half-life of loss from the medium of HTB94 chondrosarcoma cells (1 nM, 0-24 h, anti-FLAG immunoblot and densitometry) [8]: 7.8 h

B8: TIMP-3 K71A/K157A, C-terminally FLAG-tagged (natural protein)
chain: B1 chain with A22K, K71A, A110K, K157A
- percentage remaining in the medium of HTB94 chondrosarcoma cells after 24 h (1 nM, anti-FLAG immunoblot and densitometry) [1]: > 50%

B9: TIMP-3 K27A/K45A, C-terminally FLAG-tagged (natural protein)
chain: B1 chain with A22K, K27A, K45A, A110K
- percentage remaining in the medium of HTB94 chondrosarcoma cells after 24 h (1 nM, anti-FLAG immunoblot and densitometry) [1]: > 50%

B10: TIMP-3 K71A, C-terminally FLAG-tagged (natural protein)
chain: B1 chain with A22K, K71A, A110K
- half-life of loss from the medium of HTB94 chondrosarcoma cells (1 nM, 0-24 h, anti-FLAG immunoblot and densitometry) [8]: 12.9 h

B11: TIMP-3 K30A/K76A, C-terminally FLAG-tagged (natural protein)
chain: B1 chain with A22K, K30A, K76A, A110K
- percentage remaining in the medium of HTB94 chondrosarcoma cells after 24 h (1 nM, anti-FLAG immunoblot and densitometry) [1]: > 50%

B12: TIMP-3 K42A/K157A, C-terminally FLAG-tagged (natural protein)
chain: B1 chain with A22K, K42A, A110K, K157A
- percentage remaining in the medium of HTB94 chondrosarcoma cells after 24 h (1 nM, anti-FLAG immunoblot and densitometry) [1]: > 50%

B13: TIMP-3 K26A/K45A, C-terminally FLAG-tagged (natural protein, UniProt P35625 24-211, looked up)
chain: B1 chain with A22K, K26A, K45A, A110K
notes: as for B2
- Ki [2]: 0.52 nM
- Ki [3]: 0.92 nM
- Ki [4]: 0.12 nM
- Ki [5]: 0.63 nM
- Ki [6]: 0.95 nM
- Ki (ADAM17 ectodomain): 3.78 nM

B14: TIMP-3 K42A/K110A, C-terminally FLAG-tagged (natural protein, UniProt P35625 24-211, looked up)
chain: B1 chain with A22K, K42A
notes: TIMP-3, secreted into the conditioned medium; The discussion once calls this mutant K45A/K110A; source: for the screen also transiently transfected, conditioned medium dialyzed against TBS; not shown: FLAG, C-terminal, kept
- Ki [2]: 0.6 nM
- Ki [3]: 1.4 nM
- Ki [4]: 0.24 nM
- Ki [5]: 0.6 nM
- Ki [6]: 1.12 nM
- Ki (ADAM17 ectodomain): 2.34 nM
- Ki [9]: 1.2 nM
